Measured values: patent publication US20020155577A1 (AVENTIS PHARMA S A, published 2002)

Molecular target: T1, PAP1 (Parkin Associated Protein 1) fragment encoded by the insert of library plasmid pGAD-Ly111b, fused to … (human, UniProt Q4VX76 267-610)
T1 construct: Prey of the yeast two-hybrid test; It is a partial PAP1 clone from a human peripheral lymphocyte cDNA library; Any linker between GAL4 and the insert is not described; also called fragment of PAP1; plasmid isolated during the screening of the two-hybrid library
T1 sequence: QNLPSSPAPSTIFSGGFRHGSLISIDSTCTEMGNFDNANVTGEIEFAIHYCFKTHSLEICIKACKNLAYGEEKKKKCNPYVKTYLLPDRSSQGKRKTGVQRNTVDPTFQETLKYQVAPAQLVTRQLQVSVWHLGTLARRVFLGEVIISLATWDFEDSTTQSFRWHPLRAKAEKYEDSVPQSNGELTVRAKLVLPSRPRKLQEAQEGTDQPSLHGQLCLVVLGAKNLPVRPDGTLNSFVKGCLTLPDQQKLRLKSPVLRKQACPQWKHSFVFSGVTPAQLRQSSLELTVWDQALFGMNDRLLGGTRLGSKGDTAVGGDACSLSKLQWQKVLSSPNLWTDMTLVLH
Assay: yeast two-hybrid in strain L40, beta-Gal activity assay
Protocol: A sheet of nitrocellulose is preplaced on the Petri dish containing the yeast clones, which are separated from each other. This sheet is then immersed in liquid nitrogen for 30 seconds, in order to rupture the yeasts and thus to release the β-galactosidase activity. After thawing, the sheet of nitrocellulose is placed, colonies facing upwards, in another Petri dish containing a Whatman paper which has been presoaked in 1.5 ml of PBS solution (60 mM Na₂HPO₄, 40 mM NaH₂PO₄, 10 mM KCl, 1 mM MgSO₄, pH 7) containing 15 μl of X-Gal (5-bromo-4-chloro-3-indoyl-β-D-galactoside) at 40 mg/ml of N,N-dimethylformamide. The dish is then placed in an incubator at 37° C. The assay is termed positive when the colonies on the membrane turn blue after 12 hours.
To determine the specificity of interaction between the fragment corresponding to the PAP1 protein and the central region of parkin, a two-hybrid test for specific interaction with other nonrelevant proteins was carried out. To carry out this test, we transformed strain L40 with the control plasmids plex9-cAPP or pLex9-HaRasVal12, in place of the plasmid pLex9-parkin (135-290), which respectively encode the cytoplasmic domain of the APP or the HaRasVal12 protein, which are fused to the LexA DNA binding domain, and with the plasmid isolated during the screening of the two-hybrid library. […]

- binding result: binds
B1: central region of parkin (amino acids 135-290) fused to the LexA bacterial repressor, from vector pLex9-parkin (135-290) (other)
chain: GSPAGRSIYNSFYVYCKGPCQRVQPGKLRVQCSTCRQATLTLTQGPSCWDDVLIPNRMSGECQSPHCPGTSAEFFFKCGAHPTSDKETSVALHLIATNSRNITCITCTDVRSPVLVFQCNSRHVICLDCFHLYCVTRLNDRQFVHDPQLGYSLPCV
notes: also called central portion of parkin; not shown: LexA bacterial repressor as encoded by vector pLex9 (pBTM116)
